Square brackets hold non-standard residues; d marks the D form. Ends that are not written are not given here. Tyr(3-NO2) = N[C@@H](Cc1ccc(O)c([N+](=O)[O-])c1)C(=O)O; 2Abz = Nc1ccccc1C(=O)O
What was measured:
Assay type in all cases: biochemical
MMP-9 = molecular target: T1, MMP-9 (Homo sapiens, UniProt P14780); experiment: FRET peptide cleavage efficiency with MMP-9 (standard pH 7.5; also pH 6.5); conditions: for % cleavage MMP-9 t = 15 min: t = 15 min (Table 9); for % cleavage MMP-9 t = 60 min: t = 60 min (Table 9); for % cleavage MMP-9 t = 120 min: t = 120 min (Table 9)
T1 construct: purchased SIGMA PF024
T1 sequence (P14780 94-707): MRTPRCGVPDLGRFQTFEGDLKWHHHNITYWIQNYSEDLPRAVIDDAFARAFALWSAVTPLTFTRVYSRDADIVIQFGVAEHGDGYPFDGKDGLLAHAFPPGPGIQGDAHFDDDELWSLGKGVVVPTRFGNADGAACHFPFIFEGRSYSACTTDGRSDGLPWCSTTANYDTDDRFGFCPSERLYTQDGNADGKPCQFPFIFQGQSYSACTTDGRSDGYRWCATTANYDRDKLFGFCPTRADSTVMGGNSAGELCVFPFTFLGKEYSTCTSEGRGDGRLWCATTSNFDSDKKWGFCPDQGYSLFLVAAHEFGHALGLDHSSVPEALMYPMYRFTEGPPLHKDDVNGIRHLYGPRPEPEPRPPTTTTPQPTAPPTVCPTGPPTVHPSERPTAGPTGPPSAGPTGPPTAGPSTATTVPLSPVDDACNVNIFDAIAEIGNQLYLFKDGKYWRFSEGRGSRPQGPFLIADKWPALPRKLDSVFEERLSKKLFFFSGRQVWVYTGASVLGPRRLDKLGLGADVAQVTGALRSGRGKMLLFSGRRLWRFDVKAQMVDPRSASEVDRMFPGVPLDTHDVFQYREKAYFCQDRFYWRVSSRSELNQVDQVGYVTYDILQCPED

MMP-2 = molecular target: T2, MMP-2 (Homo sapiens, UniProt P08253); experiment: FRET peptide cleavage efficiency with MMP-2
T2 construct: purchased SIGMA PF023
T2 sequence (P08253 110-660): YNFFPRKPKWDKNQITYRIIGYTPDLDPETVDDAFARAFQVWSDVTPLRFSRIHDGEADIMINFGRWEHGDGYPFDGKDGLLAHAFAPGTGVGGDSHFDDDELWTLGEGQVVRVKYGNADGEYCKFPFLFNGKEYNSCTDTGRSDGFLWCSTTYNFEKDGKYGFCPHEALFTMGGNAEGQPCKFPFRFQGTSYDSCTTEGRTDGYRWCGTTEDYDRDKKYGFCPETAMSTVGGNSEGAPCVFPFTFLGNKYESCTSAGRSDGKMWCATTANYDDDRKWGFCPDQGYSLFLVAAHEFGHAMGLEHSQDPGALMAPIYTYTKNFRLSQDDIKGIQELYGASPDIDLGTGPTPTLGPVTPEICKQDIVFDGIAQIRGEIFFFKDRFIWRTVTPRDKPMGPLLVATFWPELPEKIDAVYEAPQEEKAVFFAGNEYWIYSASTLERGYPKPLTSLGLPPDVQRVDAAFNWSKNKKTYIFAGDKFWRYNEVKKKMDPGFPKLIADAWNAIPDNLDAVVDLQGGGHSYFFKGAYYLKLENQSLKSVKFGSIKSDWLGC

MMP-7 = molecular target: T3, MMP-7 (Homo sapiens, UniProt P09237); experiment: FRET peptide cleavage efficiency with MMP-7 (standard pH 7.5; also pH 6.5); conditions: for % cleavage MMP-7 t = 15 min: t = 15 min (Table 9); for % cleavage MMP-7 t = 60 min: t = 60 min (Table 9); for % cleavage MMP-7 t = 120 min: t = 120 min (Table 9)
T3 construct: purchased SIGMA CC1059
T3 sequence (P09237 95-267): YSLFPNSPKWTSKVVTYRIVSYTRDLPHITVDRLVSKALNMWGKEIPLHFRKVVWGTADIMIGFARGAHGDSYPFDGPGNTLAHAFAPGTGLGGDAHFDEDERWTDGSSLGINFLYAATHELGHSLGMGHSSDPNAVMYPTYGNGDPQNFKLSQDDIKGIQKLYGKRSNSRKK

uPA = uPA (Homo sapiens, UniProt P00749); experiment: FRET peptide cleavage efficiency with uPA
matriptase = molecular target: T4, matriptase (Homo sapiens, UniProt Q9Y5Y6); experiment: FRET peptide cleavage efficiency with matriptase
T4 construct: purchased R&D Systems 3946-SEB
T4 sequence (Q9Y5Y6 615-855 limits assumed): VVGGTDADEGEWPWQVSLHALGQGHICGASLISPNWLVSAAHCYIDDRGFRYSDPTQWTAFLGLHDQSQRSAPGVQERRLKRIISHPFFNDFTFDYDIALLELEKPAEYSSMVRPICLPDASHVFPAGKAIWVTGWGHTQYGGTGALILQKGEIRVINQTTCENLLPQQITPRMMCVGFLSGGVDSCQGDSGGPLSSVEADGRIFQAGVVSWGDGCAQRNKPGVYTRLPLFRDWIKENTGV

[1] = t = 15 min, 200 uM linker, 1 ug/ml protease, 37° C., buffer C pH 7.5
[2] = t = 60 min, 200 uM linker, 1 ug/ml protease, 37° C., buffer C pH 7.5
[3] = t = 120 min, 200 uM linker, 1 ug/ml protease, 37° C., buffer C pH 7.5
[4] = 200 uM linker, 1 ug/ml protease, 37° C., buffer A pH 8.5
[5] = t = 60 min, 200 uM linker, 1 ug/ml protease, 37° C., buffer A pH 8.5
[6] = t = 120 min, 200 uM linker, 1 ug/ml protease, 37° C., buffer A pH 8.5
[7] = t = 15 min, 200 uM linker, 1 ug/ml protease, 37° C., buffer B pH 9.0
[8] = t = 60 min, 200 uM linker, 1 ug/ml protease, 37° C., buffer B pH 9.0
[9] = 200 uM linker, 1 ug/ml protease, 37° C., buffer B pH 9.0

Sequence | % cleavage MMP-9 t = 15 min (MMP-9) [%] | % cleavage MMP-9 t = 60 min (MMP-9) [%] | % cleavage MMP-9 t = 120 min (MMP-9) [%] | % cleavage MMP-2 t = 15 min (MMP-2; pH 6.5, t = 15 min (Table 7)) [%] | % cleavage MMP-2 t = 60 min (MMP-2; pH 6.5, t = 60 min (Table 7)) [%] | % cleavage MMP-2 t = 15 min (MMP-2; t = 15 min (Table 9)) [%] | % cleavage MMP-2 t = 15 min (MMP-2; [1]) [%] | % cleavage MMP-2 t = 60 min (MMP-2; t = 60 min (Table 9)) [%] | % cleavage MMP-2 t = 60 min (MMP-2; [2]) [%] | % cleavage MMP-2 t = 120 min (MMP-2; t = 120 min (Table 9)) [%] | % cleavage MMP-2 t = 120 min (MMP-2; [3]) [%] | % cleavage MMP-7 t = 15 min (MMP-7) [%] | % cleavage MMP-7 t = 60 min (MMP-7) [%] | % cleavage MMP-7 t = 120 min (MMP-7) [%] | % cleavage uPA t = 15 min (uPA; [4]) [%] | % cleavage uPA t = 60 min (uPA; [5]) [%] | % cleavage uPA t = 120 min (uPA; [6]) [%] | % cleavage Matriptase t = 15 min (matriptase; [7]) [%] | % cleavage Matriptase t = 60 min (matriptase; [8]) [%] | % cleavage Matriptase t = 120 min (matriptase; [9]) [%] | other results
RQRRSPLGLAG ([2Abz]RQRRSPLGLAG[Tyr(3-NO2)]-NH2) [LNK010] | 76 | 99 | 100 | 63 | 100 | 67 | 64 | 100 | 99 | 100 | 99 | 15 | 49 | 78 | 0 | 1 | 2 | 98 | 94 | 91 | % cleavage MMP-2 t = 15 min (MMP-2; pH 7.5, t = 15 min (Table 7)): 66%; % cleavage MMP-2 t = 60 min (MMP-2; pH 7.5, t = 60 min (Table 7)): 100%; % cleavage uPA t = 60 min (uPA; pH 6.5, t = 60 min (Table 7)): 0%; % cleavage uPA t = 120 min (uPA; pH 6.5, t = 120 min (Table 7)): 0%; % cleavage uPA t = 60 min (uPA; pH 7.5, t = 60 min (Table 7)): 0%; % cleavage uPA t = 120 min (uPA; pH 7.5, t = 120 min (Table 7)): 0%; % cleavage Matriptase t = 15 min (matriptase; pH 6.5, t = 15 min (Table 7)): 90%; % cleavage Matriptase t = 60 min (matriptase; pH 6.5, t = 60 min (Table 7)): 100%; % cleavage Matriptase t = 15 min (matriptase; pH 7.5, t = 15 min (Table 7)): 100%; % cleavage Matriptase t = 60 min (matriptase; pH 7.5, t = 60 min (Table 7)): 100%
SGRPLGYFGKL ([2Abz]SGRPLGYFGKL[Tyr(3-NO2)]-NH2) [LNK056] | 32 | 100 | 100 |  |  | 75 | 75 | 100 | 100 | 100 | 100 | 0 | 0 | 0 | 0 | 0 | 0 | 0 | 0 | 0 | 
SGRVAGLVG ([2Abz]SGRVAGLVG[Tyr(3-NO2)]-NH2) [LNK016] | 10 | 43 | 67 | 84 | 100 | 72 | 85 | 100 | 99 | 100 | 99 | 11 | 43 | 70 | 2 | 6 | 12 | 22 | 70 | 92 | % cleavage MMP-2 t = 15 min (MMP-2; pH 7.5, t = 15 min (Table 7)): 87%; % cleavage MMP-2 t = 60 min (MMP-2; pH 7.5, t = 60 min (Table 7)): 100%; % cleavage uPA t = 60 min (uPA; pH 6.5, t = 60 min (Table 7)): 0%; % cleavage uPA t = 120 min (uPA; pH 6.5, t = 120 min (Table 7)): 0%; % cleavage uPA t = 60 min (uPA; pH 7.5, t = 60 min (Table 7)): 4%; % cleavage uPA t = 120 min (uPA; pH 7.5, t = 120 min (Table 7)): 10%; % cleavage Matriptase t = 15 min (matriptase; pH 6.5, t = 15 min (Table 7)): 8%; % cleavage Matriptase t = 60 min (matriptase; pH 6.5, t = 60 min (Table 7)): 24%; % cleavage Matriptase t = 15 min (matriptase; pH 7.5, t = 15 min (Table 7)): 17%; % cleavage Matriptase t = 60 min (matriptase; pH 7.5, t = 60 min (Table 7)): 54%
